Patent EP4772193A1 (Teijin Pharma Limited, dated 2026)

T1: recombinant human soluble gpNMB (recombinant human gpNMB-FLAG-His) (human, UniProt Q14956 23-498)
T1 sequence: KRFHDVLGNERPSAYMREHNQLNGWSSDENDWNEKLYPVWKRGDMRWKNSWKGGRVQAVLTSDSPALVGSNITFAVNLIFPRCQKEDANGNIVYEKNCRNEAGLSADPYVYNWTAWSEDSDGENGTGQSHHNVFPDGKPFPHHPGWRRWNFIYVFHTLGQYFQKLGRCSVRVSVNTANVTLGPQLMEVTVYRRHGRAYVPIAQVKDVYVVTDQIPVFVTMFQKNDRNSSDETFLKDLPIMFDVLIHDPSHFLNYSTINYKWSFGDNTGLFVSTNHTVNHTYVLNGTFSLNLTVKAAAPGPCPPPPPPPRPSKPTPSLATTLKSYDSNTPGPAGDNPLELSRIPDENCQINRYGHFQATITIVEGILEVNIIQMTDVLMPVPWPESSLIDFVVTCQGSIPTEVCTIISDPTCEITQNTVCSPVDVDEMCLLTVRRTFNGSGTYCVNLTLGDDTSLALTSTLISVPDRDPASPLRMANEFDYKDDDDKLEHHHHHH


How the values were obtained:
[1] = target: T1, recombinant human soluble gpNMB …; test: antigen ELISA
[2] = target: T1, recombinant human soluble gpNMB …; test: antigen ELISA, vs hGPN06-1_H1L1

Binder | EC50 [1] | Relative binding activity [2]
hGPN06-1_H1L1 VH L107A (antibody, V domains shown) VH: QVQLVQSGAEVKKPGASVKVSCKASGYTFTDNWMGWVKQRPGQGLEWIGAIDPSDSFTNYNQNFKGRVTMTVDTSISTAYMELSRLRSDDSAVYFCTRSGYYGSPKAGGDYWGQGTLVTVSS VL: EIVLTQSPSSLSASVGDRVTITCSASSSISYMHWYQQKSGTAPKLLIYSTSNLASGVPSRFSGSGSGTDFTFTISSLQPEDAATYYCHQWNSYPCTFGGGTKLEIK | 1.05 nM | 0.71
hGPN06-1_H1L1 VH P105A (antibody, V domains shown) VH: QVQLVQSGAEVKKPGASVKVSCKASGYTFTDNWMGWVKQRPGQGLEWIGAIDPSDSFTNYNQNFKGRVTMTVDTSISTAYMELSRLRSDDSAVYFCTRSGYYGSAKLGGDYWGQGTLVTVSS VL: EIVLTQSPSSLSASVGDRVTITCSASSSISYMHWYQQKSGTAPKLLIYSTSNLASGVPSRFSGSGSGTDFTFTISSLQPEDAATYYCHQWNSYPCTFGGGTKLEIK | 1.18 nM | 1.09
hGPN06-1_H1L1 VH Y102A (antibody, V domains shown) VH: QVQLVQSGAEVKKPGASVKVSCKASGYTFTDNWMGWVKQRPGQGLEWIGAIDPSDSFTNYNQNFKGRVTMTVDTSISTAYMELSRLRSDDSAVYFCTRSGYAGSPKLGGDYWGQGTLVTVSS VL: EIVLTQSPSSLSASVGDRVTITCSASSSISYMHWYQQKSGTAPKLLIYSTSNLASGVPSRFSGSGSGTDFTFTISSLQPEDAATYYCHQWNSYPCTFGGGTKLEIK | 2.21 nM | 0.68
hGPN06-1_H1L1 VH S104A (antibody, V domains shown) VH: QVQLVQSGAEVKKPGASVKVSCKASGYTFTDNWMGWVKQRPGQGLEWIGAIDPSDSFTNYNQNFKGRVTMTVDTSISTAYMELSRLRSDDSAVYFCTRSGYYGAPKLGGDYWGQGTLVTVSS VL: EIVLTQSPSSLSASVGDRVTITCSASSSISYMHWYQQKSGTAPKLLIYSTSNLASGVPSRFSGSGSGTDFTFTISSLQPEDAATYYCHQWNSYPCTFGGGTKLEIK | 0.712 nM | 0.88
hGPN06-1_H1L1 VH R98A (antibody, V domains shown) VH: QVQLVQSGAEVKKPGASVKVSCKASGYTFTDNWMGWVKQRPGQGLEWIGAIDPSDSFTNYNQNFKGRVTMTVDTSISTAYMELSRLRSDDSAVYFCTASGYYGSPKLGGDYWGQGTLVTVSS VL: EIVLTQSPSSLSASVGDRVTITCSASSSISYMHWYQQKSGTAPKLLIYSTSNLASGVPSRFSGSGSGTDFTFTISSLQPEDAATYYCHQWNSYPCTFGGGTKLEIK | 53.2 nM | 0.05

Binders with a lower EC50 [1], results first:

EC50 [1] | Relative binding activity [2] | Binder
0.587 nM | 0.92 | hGPN06-1_H1L1 VH S99A (antibody, V domains shown) VH: QVQLVQSGAEVKKPGASVKVSCKASGYTFTDNWMGWVKQRPGQGLEWIGAIDPSDSFTNYNQNFKGRVTMTVDTSISTAYMELSRLRSDDSAVYFCTRAGYYGSPKLGGDYWGQGTLVTVSS VL: EIVLTQSPSSLSASVGDRVTITCSASSSISYMHWYQQKSGTAPKLLIYSTSNLASGVPSRFSGSGSGTDFTFTISSLQPEDAATYYCHQWNSYPCTFGGGTKLEIK
0.502 nM | 1.04 | hGPN06-1_H1L1 VH Y101A (antibody, V domains shown) VH: QVQLVQSGAEVKKPGASVKVSCKASGYTFTDNWMGWVKQRPGQGLEWIGAIDPSDSFTNYNQNFKGRVTMTVDTSISTAYMELSRLRSDDSAVYFCTRSGAYGSPKLGGDYWGQGTLVTVSS VL: EIVLTQSPSSLSASVGDRVTITCSASSSISYMHWYQQKSGTAPKLLIYSTSNLASGVPSRFSGSGSGTDFTFTISSLQPEDAATYYCHQWNSYPCTFGGGTKLEIK
0.36 nM | 0.98 | hGPN06-1_H1L1 VH T97A (antibody, V domains shown) VH: QVQLVQSGAEVKKPGASVKVSCKASGYTFTDNWMGWVKQRPGQGLEWIGAIDPSDSFTNYNQNFKGRVTMTVDTSISTAYMELSRLRSDDSAVYFCARSGYYGSPKLGGDYWGQGTLVTVSS VL: EIVLTQSPSSLSASVGDRVTITCSASSSISYMHWYQQKSGTAPKLLIYSTSNLASGVPSRFSGSGSGTDFTFTISSLQPEDAATYYCHQWNSYPCTFGGGTKLEIK
